Laboratory results: patent US20060069055

Key:
Assay in all cases: EMSA
[1] = biological target: T1, NF-kB p50/p50 homodimer (Homo sapiens) (UniProt P19838); conditions: score 100 = less than 50% competition at any ratio tested
T1 sequence: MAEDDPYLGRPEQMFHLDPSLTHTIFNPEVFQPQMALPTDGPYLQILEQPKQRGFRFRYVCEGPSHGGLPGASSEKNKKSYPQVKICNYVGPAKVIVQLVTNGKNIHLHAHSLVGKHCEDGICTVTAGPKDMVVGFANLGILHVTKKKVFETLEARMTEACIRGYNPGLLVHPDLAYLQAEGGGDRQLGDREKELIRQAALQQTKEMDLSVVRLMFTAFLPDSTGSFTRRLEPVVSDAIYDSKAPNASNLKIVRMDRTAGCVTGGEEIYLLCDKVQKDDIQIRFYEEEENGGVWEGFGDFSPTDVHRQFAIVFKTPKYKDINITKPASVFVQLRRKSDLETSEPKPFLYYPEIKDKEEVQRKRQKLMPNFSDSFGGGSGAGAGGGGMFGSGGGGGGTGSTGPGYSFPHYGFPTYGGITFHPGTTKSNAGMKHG

[2] = biological target: NF-kB p65/p50 heterodimer (Homo sapiens) (UniProt Q04206+P19838); conditions: 50% competition not reached; same for p50/p50
E2F = tested on: E2F

Chain of NF-kB p65/p50 heterodimer (Homo sapiens) (Q04206 whole entry, one chain of several): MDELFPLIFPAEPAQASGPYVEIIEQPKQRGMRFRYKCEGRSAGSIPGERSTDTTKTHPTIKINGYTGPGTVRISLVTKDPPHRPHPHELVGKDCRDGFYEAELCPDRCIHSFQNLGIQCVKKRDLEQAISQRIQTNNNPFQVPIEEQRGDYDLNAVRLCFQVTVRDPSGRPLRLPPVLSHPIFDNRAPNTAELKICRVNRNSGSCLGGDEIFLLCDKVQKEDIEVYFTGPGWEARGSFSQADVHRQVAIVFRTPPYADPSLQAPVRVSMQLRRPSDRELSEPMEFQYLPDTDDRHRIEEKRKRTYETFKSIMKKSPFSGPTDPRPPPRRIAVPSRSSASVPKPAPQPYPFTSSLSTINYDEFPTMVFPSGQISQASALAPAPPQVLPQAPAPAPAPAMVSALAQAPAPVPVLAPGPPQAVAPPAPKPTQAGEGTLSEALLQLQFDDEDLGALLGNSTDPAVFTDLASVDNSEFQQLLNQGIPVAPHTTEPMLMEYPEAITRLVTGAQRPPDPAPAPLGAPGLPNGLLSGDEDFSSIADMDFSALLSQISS

Question: Which results are given for “AGTTGAGACTTTCGCAGGC (double strand) [decoy 159 G-Z]”?
Answer: IC50 (fold molar excess) [1]: > 100; IC50 [2]: 100 score

Question: “CTAGATTTCCCGCG (double strand) [E2F reference decoy]” was tested. Which binding signal (% competition at 10-fold excess) (E2F; 40% at 40-fold excess) did it give?
Answer: Its binding signal (% competition at 10-fold excess) is 7.

Question: “CTAGATTTCCCGCGGATC (double strand) [E2F novel decoy]” was tested. Which binding signal (% competition at 10-fold excess) (E2F; 90% at 40-fold excess) did it give?
Answer: The binding signal (% competition at 10-fold excess) was > 60.
